Data on two substances can be found in patent publication US20040072368A1, “Lipoprotein receptor” (priority 2002, published 2004).

Test [1] addresses β-subunit of ATP synthase (F1 fraction) exposed on submitochondrial particles. As to the kind of experiment: competition with 5 µg/ml 125I-labeled HDL3 on submitochondrial particles, 2 h at 4 °C.
The target is the same in test [2]. As to the kind of experiment: binding of 5 µg/ml 125I-labeled HDL3 to submitochondrial particles, 2 h at 4 °C, no competitor. The settings on record: scale: ng HDL3 protein bound per mg of mitochondrial proteins.
The target of test [3] is porcine liver plasma membrane proteins eluted from apoA-I affinity chromatography. The test can be described thus: SPR (Biacore), 1.5 µg of proteins injected on the apoA-I sensor chip. In general terms: SPR reads the build-up and loss of mass on a sensor chip optically.
Test [4] concerns the target total solubilised porcine liver plasma membrane proteins. As to the kind of experiment: SPR (Biacore 3000, B1 chip), apoA-I immobilised by amine coupling, solubilised membrane proteins injected.

In test [1], HDL3 (from UniProt P02647 19-267) displayed an IC50 (read off the curve) of 0.8 µM. In test [2], this substance displayed a 100% specific binding of 2050.

For “lipid free-apolipoprotein A-I (free-apoA-I) (from UniProt P02647 25-267) (ligand)”, the relative increase of binding against crude solubilised homogenate in test [3] turned out to be 4 fold. For the same substance, the Kd (commonly the concentration at which binding is half-saturated) in test [4] was determined as 0.001 µM.
